# According to publication PMC10449786:
# Target: human citrullinated fibrinogen (hCitFbg) (human) (UniProt P02671)
# Experiment: ELISA; Fbg or citrullinated Fbg coated (0.8 μg/mL in PBS, overnight 4 °C); recombinant SAA 10–2000 ng/mL added, 1 h at 37 °C; detected with anti-hSAA1; apparent Kd
binder,measurement,value
recombinant human serum amyloid A1 (hSAA1) (natural protein) RSFFSFLGEAFDGARDMWRAYSDMREANYIGSDKYFHARGNYDAAKRGPGGAWAAEVITDARENIQRFFGHGAEDSLADQAANEWGRSGKDPNHFRPAGLPEKY,apparent Kd relative to hSAA1-hFbg,0.5 fold
